The nature of this data set: soluble on expression in E. coli; label from the status in PepcDB or PDB records.
Turning to “MGSSHHHHHHSSGRENLYFQGHMPCQPACPVSADTWAPSAVPDDYRYADLHLPQQVGQASLAAECAVAISYNGLNQAVMMASPEDIEDFVRGFSLSSGFVESIDDIYEIRVSGQGESLHAEVEISSRAFWNLKRQRRQLAGTSGCGLCGVEALEQALPQLPERSPQALPPAAHLGALRQRIEQAQRLARHSGALHAALYFDGHGELRLCREDIGRHNALDKLIGALHRQGLDAARGFAVVTSRCSLELIHKAVRAGIGTLVSLSAPTALTVQWARRHQLNLIHQPHHNAPRVYSPAPAATE”, the “soluble on expression in E. coli” value is given as “soluble”.

Consider “MGSVRKASAWLGLVDDNDDERYYDDDYAEGQESGEAWVTDPRVKVASETAEEKGRRIGTVTPDSFRDARGIGELFRDGVPVIINLTAMEPTDAKRVVDFAAGLTFGLRGTIERVATRVFLLTPANTEIVSGEAAGRPTDGFFNQSLEHHHHHH”, for which the “soluble on expression in E. coli” value was “not soluble”.

“MGSVVPHYSWFSGITQFQKGKEFQFAEGQGVPIANGIPASEQKGYWYRHNRRSFKTPDGQQKQLLPRWYFYYLGTGPHAGASYGDSIEGVFWVANSQADTNTRSDIVERDPSSHEAIPTRFAPGTVLPQGFYVEGSGRS”: the “soluble on expression in E. coli” value is listed as “soluble”.

For “MGSWSEKAFSASKLDDAIAAKFGSLPIQESTAIQIKAPEIAENGAFVPVTVATSIPGATNISIFTPANFSPMVASFDVLPRMKPEVSLRMRMAKTENLVVVVQAGGKLYRAVREVKVTIGGCGG”, the “soluble on expression in E. coli” value is listed as “soluble”. With “MGTLWWNGTFFTMVHEGDQVEAVFTEDGKIVAIGTAEELRQRYSTRINQEMNCDGAYVYPGFVDSHLHMIGLEHHHHHH” the entry was “not soluble”. Consider “MGTYTVNVSSLNVRTGPSTSHTVLGSVNKGKTVQVVSEVQDWFKINFNGGTGYVSKDFVTKGGSAVLEHHHHHH”, for which the “soluble on expression in E. coli” value is “not soluble”.

Turning to “MGVHSFWDIAGPTARPVRLESLEDKRMAVDASIWIYQFLKAVRDQEGNAVKNSHITGFFRRICKLLYFGIRPVFVFDGGVPVLKRETIRQRKERRQGKRESAKSTARKL”, the “soluble on expression in E. coli” value is recorded as “not soluble”. For “MGVVHDVWRATKELLEATALPWPSEEREERLAAVDRLLREREELLRKLRPPYSEEEQELGREIIVWNQEIEARLLRVCEEIRRDLRMTGAKRQANARYVHPYEQPLSFDGMFYDKRR”, the “soluble on expression in E. coli” value is “not soluble”. With “MGVVRRGSDVTSHVSSVSGKSAPCLQHFSVIRSIGRGAFGKVCIVQERKTKKYFALKYMNKRRCIEKGVAANVIRELTLLSKMSHPFIVNLWYTFQDGDYMYMVSDLLLGGDLRYHLSQQGKFAEDRAKLYLCEICLAVEYLHEMKIVHRDIKPENILLDEQGHAHLTDLNLATQLEDDQLATSYSGTRPYMAPEIYATYLEIEDGYDSRVDWWALGVCFYEMLRGRTPFEFSSRTKPEEAYVAFRESSIPYPAHWPTDLIQFINSMLKFDKEKRLVGLEAIKKHSYTERIDFKSVFEKKPSPVFIPCKEGLNCDPMYELEERILVSTPIHRRRTNHNNSSGRSSSEPQNAALVEVSKAFIDFSRHNVKIEPNGFVKLN” the entry was “not soluble”; with “MGYIEELRKIVGTRPLILAGVGVAVIDDYGRILLQKRRDGLWGVPGGLLELGESTEEAARREVLEETGLEIGELELIDVFSGQKYFVRLPNGDQYYPVTIVYCTRDIRGGELGEDGKESLEVKFFFLHELPNELSPLFQDLVEHYFGS”, “soluble”. As for “MHATSRVAWFWRPSCQSFIRKMPCRPIVLSGPSGGGKSTILTRAMQEYPNSFAFSVSHTTRQPRAGEEHGKHYYFTEKEKMQEMIKNNEFLEFATFSGNTYGTSKKTVLEIENSGKICVLDIELQGVRNIKNSHLDARYILIRAPSIKLLEERLRARGTETEESLSKRLQHASEDLVEIEKNPTLFDKVIVNDDLERAYKEFVDLLRDDLEKTSKK”, the entry is “not soluble”; as for “MHCPFCFAVDTKVIDSRLVGEGSSVRRRRQCLVCNERFTTFEVAELVMPRVVKSNDVREPFNEEKLRSGMLRALEKRPVSSDDVEMAINHIKSQLRATGEREVPSKMIGNLVMEQLKKLDKVAYIRFASVYRSFEDIKEFGEEIARLED”, “soluble”; as for “MHEFRDYYGHRVRLAFADHPFSPSPGHVWVICRYGGRWLLTDHPRRGLEFPGGKVEEGETAAEAAAREVMEETGGIVGRLEYIGQYKVEPDIVKNIYFADIAALVERGSYLETNGPVLLEALPDDIRSDQRFSYFMKDDVLSLALAKLKQRGLID”, “not soluble”. As for “MHFFDTHTHLNYLQQFTGEPLSQLIDNAKQADVQKILVVAVKEADFKTIQNMTALFPDNLCYGLGLHPLYIQEHAENDLILLEQALKNRDTNCTAVAEIGLERAIPDLLTDELWAKQCHFFESQLYLAKQFNLPVNIHSRKTHDQIFTFLKRIPLSKLGVVHGFSGSYDQAKRFVDLGYKIGVGGTITYERANKTRQAIAKLPLDALVLETDSPDMPVFGFQGQPNRPERIVESFKALCTLRNEPAELIKKLTWENACQIFSLEHHHHHH”, the entry is “not soluble”; as for “MHGLQDDPDLQALLKGSQLLKVKSSSWRRERFYKLQEDCKTIWQESRKVMRSPESQLFSIEDIQEVRMGHRTEGLEKFARDIPEDRCFSIVFKDQRNTLDLIAPSPADAQHWVQGLRKIIHHSGSMDQRQK”, “soluble”; as for “MHHHHHHSSGLVPRGSGMKETAAAKFERQHMDSPDLGTDDDDKAMGCQKAVSPAAETAAVSPSVDAARLEPRVEERDGFWVLKEEFRSGINPAEKVKIEKDPMKLFIEDGISDLATLSMEEVDKSKHNKDDIDVRLKWLGLFHRRKHHYGRFMMRLKLPNGVTTSEQTRYLASVIKKYGKDGCADVTTRQNWQIRGVVLPDVPEIIKGLESVGLTSLQSGMDNVRNPVGNPLAGIDPHEIVDTRPFTNLISQFVTANSRGNLSITNLPRKWNPCVIGSHDLYEHPHINDLAYMPATKNGKFGFNLLVGGFFSIKRCEEAIPLDAWVSAEDVVPVCKAMLEAFRDLGFRGNRQKCRMMWLIDELGMEAFRGEVEKRMPEQVLERASSEELVQKDWERREYLGVHPQKQQGLSFVGLHIPVGRLQADEMEELARIADVYGSGELRLTVEQNIIIPNVENSKIDSLLNEPLLKERYSPEPPILMKGLVACTGSQFCGQAIIETKARALKVTEEVQRLVSVTRPVRMHWTGCPNSCGQVQVADIGFMGCMTRDENGKPCEGADVFVGGRIGSDSHLGDIYKKAVPCKDLVPVVAEILINQFGAVPREREEAE”, “soluble”. As to “MHHHHHHSSGRENLYFQGMEELIPLVNRLQDAFSALGQSCLLELPQIAVVGGQSAGKSSVLENFVGRDFLPRGSGIVTRRPLVLQLITSKAEYAEFLHCKGKKFTDFDEVRLEIEAETDRVTGMNKGISSIPINLRVYSPHVLNLTLIDLPGITKVPVGDQPPDIEYQIREMIMQFITRENCLILAVTPANTDLANSDALKLAKEVDPQGLRTIGVITKLDLMDEGTDARDVLENKLLPLRRGYVGVVNRSQKDIDGKKDIKAAMLAERKFFLSHPAYRHIADRMGTPHLQKVLNQQLTNHIRDTLPNFRNKLQGQLLS”, the “soluble on expression in E. coli” value was “soluble”. As for “MHHHHHHSSGRENLYFQGSEREASRLDKFKQLLAGPNTDLEELRRLSWSGIPKPVRPMTWKLLSGYLPANVDRRPATLQRKQKEYFAFIEHYYDSRNDEVHQDTYRQIHIDIPRMSPEALILQPKVTEIFERILFIWAIRHPASGYVQGINDLVTPFFVVFICEYIEAEEVDTVDVSGVPAEVLCNIEADTYWCMSKLLDGIQDNYTFAQPGIQMKVKMLEELVSRIDEQVHRHLDQHEVRYLQFAFRWMNNLLMREVPLRCTIRLWDTYQSEPDGFSHFHLYVCAAFLVRWRKEILEEKDFQELLLFLQNLPTAHWDDEDISLLLAEAYRLKFAFADAPNHYKK”, the entry is “soluble”. Turning to “MHHHHHHSSGVDLGTENLYFQSMNITKGGLVLFSANSNSSCMELSKKIAERLGVEMGKVQVYQEPNRETRVQIQESVRGKDVFIIQTVSKDVNTTIMELLIMVYACKTSCAKSIIGVIPYFPYSKQCKMRKRGSIVSKLLASMMCKAGLTHLITMDLHQKEIQGFFNIPVDNLRASPFLLQYIQEEIPDYRNAVIVAKSPASAKRAQSFAERLRLGIAVIHGEAQDAESDLVDGRHSPPMVRSVAAIHPSLEIPMLIPKEKPPITVVGDVGGRIAIIVDDIIDDVDSFLAAAETLKERGAYKIFVMATHGLLSSDAPRRIEESAIDEVVVTNTIPHEVQKLQCPKIKTVDISMILSEAIRRIHNGESMSYLFRNIGLDD”, the “soluble on expression in E. coli” value is given as “soluble”. As to “MHHHHHHSSGVDLGTENLYFQSNAMKHIQINPSILSADLARLGDDVKAVLAAGADNIHFDVMDNHYVPNLTFGPMVLKALRDYGITAGMDVHLMVKPVDALIESFAKAGATSIVFHPEASEHIDRSLQLIKSFGIQAGLALNPATGIDCLKYVESNIDRVLIMSVNPGFGGQKFIPAMLDKAKEISKWISSTDRDILLEIDGGVNPYNIAEIAVCGVNAFVAGSAIFNSDSYKQTIDKMRDELNKV”, the “soluble on expression in E. coli” value was “soluble”. As for “MHIEEKTTQLQDQQQVSITIYNENLALVRDLRHVPLEKGINKLAWCDVSAQIRPETALLRTPEKTSSIRMVEQNFDFDLLTPEKLLEKYLGRSVNVIYVNPATGAETVEAAIVLSISGGVVLKFKDRIETGTPGRIAFPDVPGSLHDHPTLSLVLDGATPGKHELELSYLTSGLSWQADYVARLDANDGRLDLSGLVTLANHSGIAYPDAHLQLVSGEVNQVTPEPPQARKMMAMVADAAEYQAVREESLSEYHLYSLPVPTTLAENQSKQITLMSVTDIPVSQEFLLRGTNAYYFSRYSNLDDKLKPVVLIQFKNEGEGLGVPLPRGTIRVYQNDSRDNLQFLGEDHIDHTAKNEEVRVKLGKATDITAMRTQTDFQQLDTPSRRFTETATDITAMRTQTDFQQLDTPSRRFTETAHQIEIHNARQEAVTIRVQEPIPGDWMMISESQPHTKSSANLVEWLVKVPTNQKTILSYRVRIKHLEHHHHHH”, the entry is “not soluble”.

(Values after the DeepSol protein solubility set.)
